In patent EP2852397B1:

Columns and labels:
human Nav1.2 (human) = human Nav1.2 (human) (UniProt Q99250); assay: cell-based or functional assay
human Nav1.7 (human) = human Nav1.7 (human) (UniProt Q15858); assay: cell-based or functional assay

recombinant Huwentoxin-IV (peptide)
IC50, veratridine-induced depolarization inhibition assay (human Nav1.2 (human)): 342 nM
IC50, veratridine-induced depolarization inhibition assay (human Nav1.7 (human)): 159 nM
IC50, veratridine-induced depolarization inhibition assay (FRET, FLIPR Tetra) (human Nav1.7 (human)): 160 nM
ratio of IC50 for Nav1.2 to IC50 for Nav1.7 (human Nav1.7 (human)): 2.14
